In US20190211076A1 (published 2019):
Changes are numbered by the printed parent chain.

T1: HMHA1 (Rho GTPase-activating protein 45), minor histocompatibility antigen HA-1H, R139H polymorphism peptide … (human)
T1 peptide: VLHDDLLEA

B1: TCR1 (TCR, V domains shown)
Valpha: QQGEEDPQALSIQEGENATMNCSYKTSINNLQWYRQNSGRGLVHLILIRSNEREKHSGRLRVTLDTSKKSSSLLITASRAADTASYFCATKRDSGAGSYQLTFGKGTKLSVIP
Vbeta: GVSQDPRHKITKRGQNVTFRCDPISEHNRLYWYRQTLGQGPEFLTYFQNEAQLEKSRLLSDRFSAERPKGSFSTLEIQRTEQGDSAMYLCASSSTGGHNEQFFGPGTRLTVL
B2: TCR5 (TCR, V domains shown)
Valpha: QQGEEDPQALSIQEGENATMNCSYKTSINNLQWYRQNSGRGLVHLILIRSNEREKHSGRLRVTLDTSKKSSSLLITASRAADTASYFCATNSGNTPLVFGKGTRLSVIA
Vbeta: GVSQDPRHKITKRGQNVTFRCDPISEHNRLYWYRQTLGQGPEFLTYFQNEAQLEKSRLLSDRFSAERPKGSFSTLEIQRTEQGDSAMYLCASSLTTLDEQYVGPGTRLTVT
B3: TCR10 (TCR, V domains shown)
Valpha: KNQVEQSPQSLIILEGKNCTLQCNYTVSPFSNLRWYKQDTGRGPVSLTIMTFSENTKSNGRYTATLDADTKQSSLHITASQLSDSASYICVVDSGGGADGLTFGKGTHLIIQP
Vbeta: B2 Vbeta with L94M, T95L, L97N, D98Y, V102F
B4: HA-1H TCR2 (TCR, V domains shown)
Valpha: KQEVTQIPAALSVPEGENLVLNCSFTDSAIYNLQWFRQDPGKGLTSLLLIQSSQREQTSGRLNASLDKSSGRSTLYIAASQPGDSATYLCAVIGLGGTYKYIFGTGTRLKVLA
Vbeta: GVSQDPRHKITKRGQNVTFRCDPISEHNRLYWYRQTLGQGPEFLTYFQNEAQLEKSRLLSDRFSAERPKGSFSTLEIQRTEQGDSAMYLCASSLVKGEKLFFGSGTQLSVL
B5: HA-1H TCR16 (TCR, V domains shown)
Valpha: KQEVTQIPAALSVPEGENLVLNCSFTDSAIYNLQWFRQDPGKGLTSLLLIQSSQREQTSGRLNASLDKSSGRSTLYIAASQPGDSATYLCAVHLLNDYKLSFGAGTTVTVRA
Vbeta: B2 Vbeta with T95V, T96V, L97G, D98N, Y101F, V102F, T111L

Biological target: T1, HMHA1 (Rho GTPase-activating protein …)
Test: chromium release, peptide titration on pulsed target cells; one value stated for the seven clones together (FIG. 2B); T cell clone or line
Procedure: (A) HLA-A2/HA-1^H multimer and CD8⁺ monoclonal antibody staining of seven (7) representative HA-1^H specific clones (1, 2, 10, 13, […], 16, and 5) and a control clone specific for another tumor antigen. (B) Data from a chromium release assay in which the seven HA-1^H-specific clones were tested for killing HA-1 peptide-pulsed target cells. (C) Data from cytotoxicity assays in which the HA-1^H-specific CTL clones were incubated with peptide-pulsed T2 cells, HA-1^H+ AML cell line THP-1, HA-1^H+ primary AML, or HA-1⁻ AML.
In addition, a chromium release assay (CRA) was used to test 7 of the HA-1-specific CTL clones (1, 2, 10, 13, 14, 16 and 5) for killing of HA-1^H peptide-pulsed targets. The T cell clones recognized HA-1^H peptide ([…])-pulsed target cells at very low peptide concentrations and half-maximal lysis is seen at a peptide concentration of 10 pM. (FIG. 2B) (ICC data not shown). Cytotoxicity of the isolated clones against cells with or without endogenous HA-1^H expression was also examined. The assays show 7 HA-1^H-specific CTL clones (TCR1, TCR2, TCR10, TCR13, TCR14, TCR16 and TCR5) lysing HA-1^H+ acute myeloid leukemia (AML) cell line (THP-1) and HA-1^H+ primary AML but not HA-1^H- AML (FIG. 2C).

EC50 of peptide [nM] | Binder
0.01 | B1
0.01 | B2
0.01 | B3
0.01 | B4
0.01 | B5
